# From the domain aggregation screens of Martell et al. (2025)
# Test: soluble fraction after stress (log2 fold change); higher = more stays soluble; pooled small domains, quantitative proteomics
# Conditions: stress: 75 degC
# 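Also: 20 min heating vs room temperature control held 20 min.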
row,Sequence,soluble fraction (log2)
1,HMKKKSYIVSFATDEDAQRFAREGFEVISLSGRQITVSLKGEMMPLVKALGSYQVVGLETVA,-1.77
2,HMKKLPDDANDIIERVSSRLAQKFRFGYHTIDDMKQQAALFAWEGIYDSWDDSRPLENFLWIHVRNRLYN,-0.111
3,HMKKLTGVQKAAILMIALGPDISSSIIKRLPENMVERITYEIANMTKITAQQRNDILKEFMDMTVAQ,-3.64
4,HMKKNTEALDYYKKAGANFPEDEVISSEYLFRAAQLQEVLGKTDEAVAIYKDIKAKYPTTEIGLNVDKFIL,0.0379
5,HMKKQLKSEAVADELRRKILSGGFPDKRLPRKDELTEYFQVSQKTVEAALKMLTAEGLIRGVKGTGIFVNG,-0.703
6,HMKKQLTISDGDWAGKVSSMLEDMGVINSASEFDKYLSDNGYSNVIKSGTYDVSPEDTFQELAEKIT,0.952
7,HMKKRDAEIMLQREFKLTEAIAMVRDRDIQELLPIALYFKVNINQPTAEIRYNLLNIAKSKTQEFIEAFD,-2.14
8,HMKKRDANSQGTRLILFYMLQRLHTEYKLQGFVTYNQRRSFREIYDAYHALGGNGFGTAMWEEVKELDLK,-2.18
9,HMKKTAAKVLGESEGKPVTVQSGRYGPYVQLGSIRATLPKDLEQDDVTLDRALELISAKAERAGK,-0.0332
10,HMKKTDFNVENYDIEELAAILNFKYVPLNQGLIRDRIKDMKQRFKNKPEYIKFFTDVEIKLVNNLNLFN,-1.67
11,HMKKTFSKSSVMEAIFRDIPNITIPNAHEVYTLIKNISVMNKRKSITSEDIEKAYDALGLTP,-0.928
12,HMKKTPLSELTNRAVELFIETVFMERNYSVSSQRQFISALKIFTVFYPQTKIHNLSLERLQSSFDKLLN,-1.25
13,HMKKTTEFAVTPEFQQRLEASPELKAAFQALTPGRQRAHLLFFAAPKQAQTRQARIEKSLPQIMAGKGLN,-0.2
14,HMKKTVTDSVELLTFLKDIFTNTSTNKLRKMLTTGRVTVNNIVIHKAKHILVQNDVVEIGDK,-3.37
15,HMKKVIEFKDVSFAFEKKPILQDFNLLVQNKDRIGIVGDNGVGKSTLLNLIAERLQPQSGQVII,0.111
16,HMKKVSVKPILELRAAGISMRKIETLMHVSRHTISAIYKAADAYSISWDNVKDFDEDKIYEMLFPPTP,-4.13
17,HMKKYEIIFNDLKQSIVNGKYSNEERLPPEETLAKKYQTSRVPVQQALNALVGIGMVKRIAGSGTYVTY,-0.394
18,HMKKYFPPKSRFNPNKYLLKDWMALGLSEKQSQSILNFIQRGIYSNSALEKIYVMPEEVFTLIKDSTYYEE,-1.38
19,HMKKYIEIYNYYKQLIESEQLKSGDKMPSVRKATKIFNVSKTTVQNAYFDLQADGYIIAAPKSGYYVTEM,-1.07
20,HMKKYLNIYNIIVNKIESKEYQSNDKLPSEKELMDQYNVSRDTVRKSLNMLEQNGYIQKTKGKGSFVLDIN,-0.865
21,HMKLEEITIIVPSLRLDNFVSDLARTSRSKAVQIIDSERVFINGQNETKASKQVKLGDVITSA,-0.211
22,HMKLHPRDQERTRAISARGERLYAVTVGDLRRRIGEMLEWFGRQIESQEPMRVAKAARRITDFFDQVEAFT,-2.5
23,HMKLIRLGKAAGELNVGMSTLAEFLQSKGHSVDPNPNTKLTPEQYALLRMEFAADQTLKKLTKQP,0.452
24,HMKLKHANGNHPLTQQEKQNMIEEAAKHYGDYMTALGFDWKQDPNSSDTPMRVAKAFVNDLAEGVY,0.0234
25,HMKLLLSANISKLRKKYSMTQEQLAEALGVTFASVSKWERGVATPELKLIAEMADMFEVSIDALIGYEFRN,-1.87
26,HMKLPIEKESYRIIWDLEEESFRIRLKISENSPQEEKNILINQAIEDIENITGEPIDKSPYYVLYE,-0.627

row,Sequence,soluble fraction (log2)
1,HMKLPNSFGSIQKLSGNRRKPYRVVKTIGWDENGKQIRKTLGYYETRAKALQELALFNEKPYD,-1.72
2,HMKLTALWTANPKISAPIYSEPSTQSKTLGRIYQGASVKVYSFDPEWAYINSSGVVGYVLRRHLE,-2.43
3,HMKLTINIDAAHDGKTIKQLFAEKGYSLELIKKFKYDGAIEVNGERKTVRWVLREGDLLVLEAN,-2.42
4,HMKLTNIQYETLKVVVESRAKIDEEEGITIKLEDIKKYIDQAISFTGLVGDDEDYKKLFADMEYRFKIQ,-2.96
5,HMKLVAAGYHQNRLLVLLGIQAEELQAKRLLASFDRFRGREATPKPPIHDSARRWLRDTYHHVMNQVPVEL,-1.59
6,HMKMHKIIKERRLALNFTQEQVAKYLGVTTPAVNKWEKGISYPDISLLPALARLLDTDLNTLLSF,-4.38
7,HMKMLPAEVLTHPAVVALIERGAPTGSITPEEVRQASEDAAVEPRHLKALLAHLSALGISVQIP,-0.303
8,HMKMLSIQRREAIRALLLEKESITIAEVMEKFQISVETARRDFDALADEGFLNKVYGGATLKK,-1.68
9,HMKMPNGYGSITKLSGKRRKPWRVRKTAGWELDAKTQKLKQTYINIGYYETRADAMSALVSYNEDP,-1.01
10,HMKMQPVISQGVLYINNVTDVRTIEVFDISGRIVADAAASTTVNIAHLNEGPYIVKVTTVNGIESIKILNK,-2.5
11,HMKNAMTDIYLEEIKKILTKNEFLVYTLRELNNFSVQFITDNYDLSEKTIYNSVYRAKKKIDRHFT,-0.159
12,HMKNDKLLIFMELKGISRTQLSKSTGIPASTLGRIINGDVQKIKAVYMEAIANALDTSIHTIFDV,-1.6
13,HMKNDNIHMMASKINGIALEVGVLTPGMHPKNDLSEGEVGYIVTNLKTTREAKVGDTVTLAKKPAATPLPG,0.322
14,HMKNETFAITSEDAGKRLDVWLTNILGDYSRSYVERLVEQGNVTVGGKTVKAGYKLKAGDSVQVSIPGPK,0.144
15,HMKNISSEEDREKALSLGITQEFIDNKGRYFITVPNKPSNFKEQALNIQKEISEQIDTVINKRFEF,0.0903
16,HMKNLDILTPKEIEVLNLVAKGYSNSKISKELDIAEVTVKKHIGSMFQKLDVKDRLSLALIL,-0.591
17,HMKNLKPSTEVILKELVKRYPDQTEFRKQQIVDVGQSFGYKGKDYGPIFDADNRVKIGTYDLAGLIVPLQR,0.0472
18,HMKNLNVIDLSALRTLELKESSDWTLIQKRFKLLVKKYHPDMNAGSKQYEEKLKKITLAYTHLKKLF,-2.67
19,HMKNQQLFNIGDRFQVDGVAYRMEKLFPENGTVEVYNLGVGRHKTMSFEEILALWNSGKLLFEI,-0.966
20,HMKNSIKLDNFVGMSYDEVISNKEYDFNFVSAFEKTSDYEAGTIIGQTPAAEERVMVGTTVTLTVAQP,0.491
21,HMKNTADRVYENLFHMLVSGDYAPGDRIPSEHELKERFNVSRNTIRAALNRMNALGIIETRQGDGTYLKG,-0.472
22,HMKNTFGLTEREMEVLALIVDGLSNPEIAEKLFITRATAKAHVHSILQKLYVDDRTQAAVTAMREGL,-2.21
23,HMKNTIPVPHIIGLSEQEARETLERAGLQLNVIKTEPNTKYESGQVTDTNPNEGIKVPKGTIVNVVLADS,-0.0118
24,HMKNTLDAYIRYLSNFLSRNNYPEAEDLSFINARADQAYEVFLEARRGGVDVSTAEELAMIALMQGY,-2.34
25,HMKNVEEMILGKLKRKVSENLENASFEEIILVDAEKSVYKGIIKANYIEYYFRVNLSTGEVLSWKLK,-0.86
26,HMKPAFTPYVVKVTADVLNVRSGPGTNYGITTKVKKGEAYTIVEEKNGWGKLKSGAGWISLEYTVK,-1.09

row,Sequence,soluble fraction (log2)
1,HMKPALFSADELNRLYRYGLSLTGERDRAYDLLQTALEKYLRQSQAPANAMRYVRKIMHNQFIDDYR,-1.53
2,HMKPDWLSDGRLIPDEVMSHLRKIAVHAVEEMGYSPEDVIKILGLSRNTIYDWLKRFREHGYEGLDTKK,-0.957
3,HMKPLAQQVNDYLAATRTSIATLANEIPGYSRPTISRYLAGKYDGDITTIEKLLAEWLAQRTG,-0.832
4,HMKPNEYVSGETFPYLGKNYRLKVLHGSENSVRLKGGYFITTISNRDSQLSTVKSLLEDWYQTHADK,0.043
5,HMKPPTIELSYSEFIELVERGKVSKVIFSSDNYTLKGETVNGENFETVRPPFLEDNLSEILTIHKVPVSSE,-0.109
6,HMKPSKTVYTTANLNLRNGASMSAAVYTSVSRGTALATTGRTTSGWTQITHRGRTLWASSKYLTTTTPP,-3.17
7,HMKPSNRSYPTALRMEVIGIIRERYADFGPTLAGEKLAELHGIHLGRETIRQWMMAAGLWKDRR,-1.09
8,HMKPTVKVPNVVNLSLRNAQIQLQNYGLEVGSISYESSRFKNAVLRQSISEGSVVEKGTTINLVISDGL,-1.56
9,HMKPVPPLNGTSLRDLALGYAGRYATTAARLKHYLQRKLRERGWGGEDEPDLDGLVARLVELGYVNDEVF,-0.704
10,HMKQAINFSDLNSLEEGLGIAIRQKWNEVSINDVPEDKIELVEDWINNNRGKYKGINISIGSTY,0.114
11,HMKQAVESAEAIFEEIARIKKLSLVKSEAEEIARKTGLQKFTIASQLLKNQHAYEMDESEIASLWDKKI,-0.0597
12,HMKQDFVYNGFVEAKGDDLMVQINYKGETYYVTEGESFGGFTVKSANKDKVVLSGQGGAETVLEFR,-0.186
13,HMKQENRLKILRKEKGLTQTKLANEIGVSKRTIIAWENDERQIKPDKAQQLADYFGVKEGYLLGYTNN,0.114
14,HMKQESSEDLLNEVIDKVIDSNPDEKNRLLDGELKLVSFFMGQVMKETKGKANPGVINGLIKKKFNI,-0.701
15,HMKQISNTDELEAMIQKIIEDNSQQVEKFRSGNEKLFGWFVGQVMKNTQGAANPKVVNEILKKSLK,0.318
16,HMKQISNTDELESMAKNIIQENPDQVSKFKNGNEKLFGWFVGQMMKSTGGTANPKVVNEILKNLLN,0.134
17,HMKQLIGYSVIDIKMGKLGEISFVNSKTAQALIHVSKDGKGFYFPWHKQFVKNIDAEKGIMEVEIPKEFLD,-0.974
18,HMKQLNKRQNDILSFAEKQGYVSVENLAKLFSVTQQTIRRDINYLSDNELLVRTHGGAYYSS,-1.18
19,HMKQNRNLPVQIINNGKIIESVMTEFNLDIDWVYSEAKRLGYKNIKDIFYAGINRDGQFFIVPLF,-3.06
20,HMKQNVEAVIKERAIEKARAQVKAVSTHMALEAQSLSKEQLEFEIERIAAQIIDKMPSDFWND,-1.28
21,HMKQPNFTVIETKILELLFQKDLSSREMQEILKISKDNLIFALQNLLEQEKIVLQTSNTYTVN,-1.88
22,HMKQPVPDEIYFKRLANATEALGRYPRASERKKFGLNMSKRRYPTLTDFINKAIELGYVEDFR,-0.833
23,HMKQQAYEQGKAAYQSGDWLRAVTQLGQVKEAGEKNGEVDHLLGNAYMKLGQFESAAYAYNSALEDVA,0.53
24,HMKQTMIVVMEKDAPQSQIDDMVKRIEGLGLKAHTIVGTQRTVVAAIGEKREDTRESLAGSPGVAEVVPIL,0.239
25,HMKQYVEPASETEKMVVELWEKVLLTEKIGMHDDFFELGGHSLKAMRLISLYHQEFNVRLSLKSLFEKLK,-0.241
